Substitutions are numbered along the chain they refer to. Numbers in names are those of the source.
Key:
[1] = test system: periplasmic domain of RseA; assay: Cleavage of 35S-labeled RseA periplasmic domain by DegS variants; format: biochemical, E. coli; settings: for YYF-stimulated cleavage activity relative to H198P parental enzyme / YYF-stimulated cleavage activity relative to wild type: with YYF; for YYF-stimulated cleavage activity relative to H198P parental enzyme: % of H198P parent; for YYF-stimulated cleavage activity relative to wild type: % of wild-type activity
[2] = test system: DegS; settings: substrate-saturated; ref Sohn and Sauer, 2009; cited from earlier work
[3] = H198P background, compared to H198P
[4] = WT background, compared to wild-type DegS

B1: I179A/H198P (protein, UniProt P0AEE3 1-355, looked up, variant I179A H198P)
Serine endoprotease DegS: MFVKLLRSVAIGLIVGAILLVAMPSLRSLNPLSTPQFDSTDETPASYNLAVRRAAPAVVNVYNRGLNTNSHNQLEIRTLGSGVIMDQRGYIITNKHVINDADQIIVALQDGRVFEALLVGSDSLTDLAVLKINATGGLPTIPINARRVPHIGDVVLAIGNPYNLGQTITQGIISATGRAGLNPTGRQNFLQTDASINPGNSGGALVNSLGELMGINTLSFDKSNDGETPEGIGFAIPFQLATKIMDKLIRDGRVIRGYIGIGGREIAPLHAQGGGIDQLQGIVVNEVSPDGPAANAGIQVNDLIISVDNKPAISALETMDQVAEIRPGSVIPVVVMRDDKQLTLQVTIQEYPATN
YYF-stimulated cleavage activity relative to H198P parental enzyme ([1]; H198P background): ≥ 65%

B2: Q187A/H198P (protein, UniProt P0AEE3 1-355, looked up, variant Q187A H198P)
Serine endoprotease DegS: B1 Serine endoprotease DegS with A179I, Q187A
YYF-stimulated cleavage activity relative to H198P parental enzyme ([1]; H198P background): ≥ 65%

B3: H198P/P229A (protein, UniProt P0AEE3 1-355, looked up, variant H198P P229A)
Serine endoprotease DegS: B1 Serine endoprotease DegS with A179I, P229A
YYF-stimulated cleavage activity, in words [1, 3]: more active than H198P

B4: H198P/E230A (protein, UniProt P0AEE3 1-355, looked up, variant H198P E230A)
Serine endoprotease DegS: B1 Serine endoprotease DegS with A179I, E230A
YYF-stimulated cleavage activity, in words [1, 3]: activity within error of H198P

B5: D221A/H198P (protein, UniProt P0AEE3 1-355, looked up, variant D221A H198P)
Serine endoprotease DegS: B1 Serine endoprotease DegS with A179I, D221A
YYF-stimulated cleavage activity relative to H198P parental enzyme ([1]; H198P background): ≥ 65%

B6: N197A: DegS variant N197A (protein)
chain: RSLNPLSTPQFDSTDETPASYNLAVRRAAPAVVNVYNRGLNTNSHNQLEIRTLGSGVIMDQRGYIITNKHVINDADQIIVALQDGRVFEALLVGSDSLTDLAVLKINATGGLPTIPINARRVPHIGDVVLAIGNPYNLGQTITQGIISATGRIGLNPTGRQNFLQTDASIAHGNSGGALVNSLGELMGINTLSFDKSNDGETPEGIGFAIPFQLATKIMDKLIRDGRVIRGYIGIGGREIAPLHAQGGGIDQLQGIVVNEVSPDGPAANAGIQVNDLIISVDNKPAISALETMDQVAEIRPGSVIPVVVMRDDKQLTLQVTIQEYPATN
modifications: left off: His6, N-terminal, state not stated
YYF-stimulated cleavage activity relative to wild type ([1]; WT background): less than 2%

B7: I232A: DegS variant I232A (protein)
chain: B6 chain with A171N, I206A
modifications: left off: His6, N-terminal, state not stated
YYF-stimulated cleavage activity relative to wild type ([1]; WT background): less than 2%

B8: D221A: DegS variant D221A (protein)
chain: B6 chain with A171N, D195A
modifications: left off: His6, N-terminal, state not stated
YYF-stimulated cleavage activity, in words [1, 4]: reduced YYF-stimulated cleavage activity compared to wild-type DegS

B9: I179A: DegS variant I179A (protein)
chain: B6 chain with I153A, A171N
modifications: left off: His6, N-terminal, state not stated
YYF-stimulated cleavage activity, in words [1, 4]: reduced YYF-stimulated cleavage activity compared to wild-type DegS

B10: F234A: DegS variant F234A (protein)
chain: B6 chain with A171N, F208A
modifications: left off: His6, N-terminal, state not stated
YYF-stimulated cleavage activity relative to wild type ([1]; WT background): less than 2%

B11: E230A: DegS variant E230A (protein)
chain: B6 chain with A171N, E204A
modifications: left off: His6, N-terminal, state not stated
YYF-stimulated cleavage activity relative to wild type ([1]; WT background): ~ 10%

B12: WT DegS: Wild-type E. coli DegS (residues 27–355) with N-terminal His6 tag replacing the membrane anchor (protein)
chain: B6 chain with A171N
modifications: left off: His6, N-terminal, state not stated
DegS in the active conformation [2]: ~ 0.3%

B13: P229A: DegS variant P229A (protein)
chain: B6 chain with A171N, P203A
modifications: left off: His6, N-terminal, state not stated
YYF-stimulated cleavage activity, in words [1, 4]: more active than wild-type DegS

B14: Q187A: DegS variant Q187A (protein)
chain: B6 chain with Q161A, A171N
modifications: left off: His6, N-terminal, state not stated
YYF-stimulated cleavage activity, in words [1, 4]: reduced YYF-stimulated cleavage activity compared to wild-type DegS
